T1: CD3-His蛋白(MP-5)
T1 chain: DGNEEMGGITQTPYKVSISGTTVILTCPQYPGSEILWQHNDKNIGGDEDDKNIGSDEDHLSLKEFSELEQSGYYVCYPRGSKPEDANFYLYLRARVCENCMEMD

B1: C84 (VHH)
VHH: QVQLQESGGGLVQAGGYLRLSCAVSGRTFSSYAMGWFRQAPGKEREFVAAINWSGGSTYYVDSVKGRFTISRDNAKNTVYLQMNSLKPEDTAVYYCAASGLGYTIVSASEYDYWGQGTQVTVSS
notes: Llama sdAb tested as sdAb-SASA protein in crude expression medium / culture supernatant; 3 nowhere in its text; also called 抗CD3单域抗体; sdAb; not shown: SASA fusion partner from the pFASEBA vector (sdAb-SASA protein)
B2: C62 (VHH)
VHH: QVQLQESGGGLVQAGGSLRLSCAASGRTFSNYHMGWFRQAPGKERELVAAISGSGGSTYYTDSVKGRFTISRNNAKNTMSLQMSNLKPEDTGVYYCTTPTEKGSSIDYWGQGTQVTVSS
notes: Llama sdAb tested as sdAb-SASA protein in crude expression medium / culture supernatant; 1 nowhere in its text; also called 抗CD3单域抗体; sdAb; not shown: SASA fusion partner from the pFASEBA vector (sdAb-SASA protein)

Legend:
CD3 on Jurkat cells = assay: flow cytometry, culture supernatant on Jurkat cells
CD3-His蛋白(MP-5) = molecular target: T1, CD3-His蛋白(MP-5); assay: BLI (Octet RED96) off-rate screen, sdAb-SASA from expression medium captured on BSA-coated biosensor, 100 nM CD3 in solution, 1:1 Langmuir model, 30°C

Row | Binder | MFI (CD3 on Jurkat cells) | koff (CD3-His蛋白(MP-5))
1 | B1 | 312 MFI | 2.84e-05 s⁻¹
2 | B2 | 283 MFI | 5.32e-05 s⁻¹

Source: patent CN106146662A (UNIV SUN YAT SEN, dated 2016)
